This is an account of results in patent publication US8440430, “Modified dicer polypeptide and methods of use thereof” (The Regents of the University of California).

In one data set the target is T1, TRBP, Q15633.
T1 chain: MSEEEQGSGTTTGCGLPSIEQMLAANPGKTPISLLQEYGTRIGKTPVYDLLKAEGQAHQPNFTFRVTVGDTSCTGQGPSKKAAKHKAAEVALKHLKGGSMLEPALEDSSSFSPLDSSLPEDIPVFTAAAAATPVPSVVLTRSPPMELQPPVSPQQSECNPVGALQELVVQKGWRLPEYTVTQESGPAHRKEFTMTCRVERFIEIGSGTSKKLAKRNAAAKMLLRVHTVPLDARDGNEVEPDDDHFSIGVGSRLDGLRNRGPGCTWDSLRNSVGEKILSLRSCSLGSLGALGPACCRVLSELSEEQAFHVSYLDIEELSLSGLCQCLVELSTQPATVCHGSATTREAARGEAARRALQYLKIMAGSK

For data set [1], the target named is T2, ΔDEAD human Dicer (deletion of amino acids 1-604 spanning the entire DExD/H-box domain) (human, UniProt Q9UPY3 605-1922).
T2 construct: The DEAD-F primer adds an initiator Met; also called ΔDEAD hDcr; DExD/H-box deletion protein
T2 sequence: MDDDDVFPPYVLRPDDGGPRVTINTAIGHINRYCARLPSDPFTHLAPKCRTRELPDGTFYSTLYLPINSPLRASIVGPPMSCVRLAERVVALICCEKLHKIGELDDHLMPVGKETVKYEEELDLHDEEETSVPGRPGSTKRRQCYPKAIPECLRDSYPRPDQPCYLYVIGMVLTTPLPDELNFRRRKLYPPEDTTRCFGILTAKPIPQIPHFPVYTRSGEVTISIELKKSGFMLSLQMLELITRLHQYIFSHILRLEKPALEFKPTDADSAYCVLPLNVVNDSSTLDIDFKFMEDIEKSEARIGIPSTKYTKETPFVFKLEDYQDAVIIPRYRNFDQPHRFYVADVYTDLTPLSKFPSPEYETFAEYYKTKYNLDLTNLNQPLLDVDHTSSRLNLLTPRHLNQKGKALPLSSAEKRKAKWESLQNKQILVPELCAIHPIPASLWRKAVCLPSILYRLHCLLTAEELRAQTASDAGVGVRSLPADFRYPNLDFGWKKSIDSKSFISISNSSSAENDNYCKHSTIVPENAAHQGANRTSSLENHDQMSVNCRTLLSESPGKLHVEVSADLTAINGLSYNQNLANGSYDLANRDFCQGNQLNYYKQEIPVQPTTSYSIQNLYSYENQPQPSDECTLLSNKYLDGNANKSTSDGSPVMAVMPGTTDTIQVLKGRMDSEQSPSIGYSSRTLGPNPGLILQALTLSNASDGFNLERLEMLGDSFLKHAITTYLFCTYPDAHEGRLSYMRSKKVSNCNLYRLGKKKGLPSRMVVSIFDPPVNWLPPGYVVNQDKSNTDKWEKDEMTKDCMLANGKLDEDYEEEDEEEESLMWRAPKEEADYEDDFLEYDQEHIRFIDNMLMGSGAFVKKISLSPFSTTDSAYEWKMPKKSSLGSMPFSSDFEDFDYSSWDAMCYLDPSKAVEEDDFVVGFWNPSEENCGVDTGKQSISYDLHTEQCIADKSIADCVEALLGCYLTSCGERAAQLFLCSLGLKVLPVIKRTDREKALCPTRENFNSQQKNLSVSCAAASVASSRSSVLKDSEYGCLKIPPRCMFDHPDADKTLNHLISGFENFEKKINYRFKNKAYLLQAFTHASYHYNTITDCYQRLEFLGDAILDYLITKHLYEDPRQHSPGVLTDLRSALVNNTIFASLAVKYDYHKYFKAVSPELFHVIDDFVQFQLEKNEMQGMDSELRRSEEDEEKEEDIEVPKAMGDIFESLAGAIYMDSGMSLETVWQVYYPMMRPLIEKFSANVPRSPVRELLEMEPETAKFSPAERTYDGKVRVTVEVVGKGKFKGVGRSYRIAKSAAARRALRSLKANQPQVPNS
Nature of the data set: size exclusion chromatography with SDS-PAGE of fractions after 60 min pre-incubation on ice. As to the method:
FIGS. 6A and 6B. Interaction of human Dicer with TRBP mediated by DEAD domain A, TRBP interacts with hDcr through DEAD domain. Prior to size exclusion chromatography, 2.5 nmol of each human Dicer protein and 9.0 nmol of TRBP were pre-incubated on ice for 60 minutes. Left panel, a chromatogram (top) of wild-type human Dicer (flhDcr) with TRBP and SDS-PAGE gel analysis of fractions (bottom); Right panel, a chromatogram (top) of ΔDEAD human Dicer (ΔDEAD) with TRBP and SDS-PAGE gel analysis of fractions (bottom). B, Binding of TRBP to hDcr increased its dicing activity. A multiple-turnover assay for 37ab cleavage using 100 nM dsRNA and 5 nM hDcr or hDcr-TRBP.
(In general: In gel filtration, larger molecules generally elute earlier.)

B1: full-length wild-type human Dicer (hDcr), accession no. NP-803187 (protein)
chain: MKSPALQPLSMAGLQLMTPASSPMGPFFGLPWQQEAIHDNIYTPRKYQVELLEAALDHNTIVCLNTGSGKTFIAVLLTKELSYQIRGDFSRNGKRTVFLVNSANQVAQQVSAVRTHSDLKVGEYSNLEVNASWTKERWNQEFTKHQVLIMTCYVALNVLKNGYLSLSDINLLVFDECHLAILDHPYREIMKLCENCPSCPRILGLTASILNGKCDPEELEEKIQKLEKILKSNAETATDLVVLDRYTSQPCEIVVDCGPFTDRSGLYERLLMELEEALNFINDCNISVHSKERDSTLISKQILSDCRAVLVVLGPWCADKVAGMMVRELQKYIKHEQEELHRKFLLFTDTFLRKIHALCEEHFSPASLDLKFVTPKVIKLLEILRKYKPYERQQFESVEWYNNRNQDNYVSWSDSEDDDEDEEIEEKEKPETNFPSPFTNILCGIIFVERRYTAVVLNRLIKEAGKQDPELAYISSNFITGHGIGKNQPRNKQMEAEFRKQEEVLRKFRAHETNLLIATSIVEEGVDIPKCNLVVRFDLPTEYRSYVQSKGRARAPISNYIMLADTDKIKSFEEDLKTYKAIEKILRNKCSKSVDTGETDIDPVMDDDDVFPPYVLRPDDGGPRVTINTAIGHINRYCARLPSDPFTHLAPKCRTRELPDGTFYSTLYLPINSPLRASIVGPPMSCVRLAERVVALICCEKLHKIGELDDHLMPVGKETVKYEEELDLHDEEETSVPGRPGSTKRRQCYPKAIPECLRDSYPRPDQPCYLYVIGMVLTTPLPDELNFRRRKLYPPEDTTRCFGILTAKPIPQIPHFPVYTRSGEVTISIELKKSGFMLSLQMLELITRLHQYIFSHILRLEKPALEFKPTDADSAYCVLPLNVVNDSSTLDIDFKFMEDIEKSEARIGIPSTKYTKETPFVFKLEDYQDAVIIPRYRNFDQPHRFYVADVYTDLTPLSKFPSPEYETFAEYYKTKYNLDLTNLNQPLLDVDHTSSRLNLLTPRHLNQKGKALPLSSAEKRKAKWESLQNKQILVPELCAIHPIPASLWRKAVCLPSILYRLHCLLTAEELRAQTASDAGVGVRSLPADFRYPNLDFGWKKSIDSKSFISISNSSSAENDNYCKHSTIVPENAAHQGANRTSSLENHDQMSVNCRTLLSESPGKLHVEVSADLTAINGLSYNQNLANGSYDLANRDFCQGNQLNYYKQEIPVQPTTSYSIQNLYSYENQPQPSDECTLLSNKYLDGNANKSTSDGSPVMAVMPGTTDTIQVLKGRMDSEQSPSIGYSSRTLGPNPGLILQALTLSNASDGFNLERLEMLGDSFLKHAITTYLFCTYPDAHEGRLSYMRSKKVSNCNLYRLGKKKGLPSRMVVSIFDPPVNWLPPGYVVNQDKSNTDKWEKDEMTKDCMLANGKLDEDYEEEDEEEESLMWRAPKEEADYEDDFLEYDQEHIRFIDNMLMGSGAFVKKISLSPFSTTDSAYEWKMPKKSSLGSMPFSSDFEDFDYSSWDAMCYLDPSKAVEEDDFVVGFWNPSEENCGVDTGKQSISYDLHTEQCIADKSIADCVEALLGCYLTSCGERAAQLFLCSLGLKVLPVIKRTDREKALCPTRENFNSQQKNLSVSCAAASVASSRSSVLKDSEYGCLKIPPRCMFDHPDADKTLNHLISGFENFEKKINYRFKNKAYLLQAFTHASYHYNTITDCYQRLEFLGDAILDYLITKHLYEDPRQHSPGVLTDLRSALVNNTIFASLAVKYDYHKYFKAVSPELFHVIDDFVQFQLEKNEMQGMDSELRRSEEDEEKEEDIEVPKAMGDIFESLAGAIYMDSGMSLETVWQVYYPMMRPLIEKFSANVPRSPVRELLEMEPETAKFSPAERTYDGKVRVTVEVVGKGKFKGVGRSYRIAKSAAARRALRSLKANQPQVPNS
Turning to B1, the “cleavage rate in a multiple-turnover assay for 37ab cleavage (100 nM dsRNA, 5 nM hDcr or hDcr-TRBP)” value with TRBP, Q15633 is reported as “increased the cleavage rate of the resulting protein complex”.

B2: TRBP (other, human, UniProt Q15633 1-366, looked up)
chain: MSEEEQGSGTTTGCGLPSIEQMLAANPGKTPISLLQEYGTRIGKTPVYDLLKAEGQAHQPNFTFRVTVGDTSCTGQGPSKKAAKHKAAEVALKHLKGGSMLEPALEDSSSFSPLDSSLPEDIPVFTAAAAATPVPSVVLTRSPPMELQPPVSPQQSECNPVGALQELVVQKGWRLPEYTVTQESGPAHRKEFTMTCRVERFIEIGSGTSKKLAKRNAAAKMLLRVHTVPLDARDGNEVEPDDDHFSIGVGSRLDGLRNRGPGCTWDSLRNSVGEKILSLRSCSLGSLGALGPACCRVLSELSEEQAFHVSYLDIEELSLSGLCQCLVELSTQPATVCHGSATTREAARGEAARRALQYLKIMAGSK
notes: also called human partner protein TRBP
Consider B2, for which the binding result in data set [1] was “no binding”.
